The text below walks through data of the nanobody polyreactivity screen of Harvey et al. (2022).

A short description of the data set: yeast display, Sf9 membrane polyspecificity reagent, FACS + sequencing; frameworks hold sequencing errors. An outline of the steps:
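Polyreactivity labels are assigned by the sorting gate from which each nanobody was recovered. The gates were low and high (top ~1%), set on anti-HA fluorescence for expression and streptavidin fluorescence for reagent binding. Before sorting, galactose-induced (36–48 hours) yeast display cells were stained for 1 hour at 4 °C with 10% biotinylated, detergent-solubilized Sf9 membrane reagent.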
For the sequence “QVQLVESGGGLVQAGGSLRLSCAASGRTIIYYGMGWYRQAPGKERELVAAISLRGSSTRYADSVKGRFTISRDNAKNTVYLQMNSLKPEDTAVYYCAARPRLSRYDYWGQGTQVTVSS”, the “polyreactivity (PSR sort gate)” value is reported as “high polyreactivity”. “QVQLVESGGGLVQAGGSLRLSCAASGRTIKYYAMGWYRQAPGKESELVAAISSSGGRTNYADSVKGRFTISRDNANNTVYLQMNSLKPEDTAVYYCAARFYKTYPRMNYWGQGTQVTVSS”: the “polyreactivity (PSR sort gate)” value is “high polyreactivity”. On to “QVQLVESGGGLVQAGGSLRLSCAASGRTILVYAMGWYRPAPGKERELVAAISSDGSTNYADSVKGRFTISRDNAMNTVYLQMNSLNPEDTAVYYCARDYYAVSYLYDYWGQGTQVTVSS”, for which the “polyreactivity (PSR sort gate)” value is reported as “low polyreactivity”.

With “QVQLVESGGGLVQAGGSLRLSCAASGRTIPSNAMGWYRQAPGKERELVAAITRSGGSTKYADSVKGRFTISRDNAKNTVYLQMNSLKPEDTAVYYCAGRYHSGSQVWYNYWGQGSQVTVSS”, the “polyreactivity (PSR sort gate)” value is reported as “high polyreactivity”.

On to “QVQLVESGGGLVQAGGSLRLSCAASGRTIRAYTMGWSRQAPGKERELVAAISTPGGSTYYADSVKGRFTISRDNAKNTVYLQMNSLKPEDTAVYYCAADYGGPITGYEYWGQGTQVTVSS”, for which the “polyreactivity (PSR sort gate)” value is listed as “low polyreactivity”. Take “QVQLVESGGGLVQAGGSLRLSCAASGRTIRGNAMGWYRQAPGKERELVAAITRSGASTTYADSVKGRFTISRDNAKNTVYLQMNSLKPEDTAVYYCAARSGAVKYSSYYYWGQGTQVTVSS”: the “polyreactivity (PSR sort gate)” value is on record as “high polyreactivity”.

On to “QVQLVESGGGLVQAGGSLRLSCAASGRTIRHNAMGWYRQAPGKERELVAAISRSGGSTYYADSVKGRFTISRDNAKNTVYLQMNSLKREDTAVYYCAAGYHGYDWGQGTQVTVSS”, for which the “polyreactivity (PSR sort gate)” value is reported as “high polyreactivity”. Regarding “QVQLVESGGGLVQAGGSLRLSCAASGRTIRRNAMGWYRQAPGKERELVAGISGSGTITYADSVKGRFTISRDNAKNTVYLQMNSLKPEDTAVYYCAARRKSFYTFYYWGQGTQVTVSS”, the “polyreactivity (PSR sort gate)” value is given as “high polyreactivity”. As to “QVQLVESGGGLVQAGGSLRLSCAASGRTIRWNAMGWYRPAPGKERELVAAITSRGGSTYYADSVKGRFTISRDNAKNTVYLQMNSLKPEDTAVYYCAARRRSAQSGSYNHWGQGTQVTVSS”, the “polyreactivity (PSR sort gate)” value is on record as “high polyreactivity”.

Take “QVQLVESGGGLVQAGGSLRLSCAASGRTIRWNDMGWYRQAPGKERELVAAITSRGGSTYYADSVKGRFTISRDNAMNTVYFQMNSLKPEDTAVYYCAKQPKPPPVTGYDYWGQGSQVTVSS”: the “polyreactivity (PSR sort gate)” value is on record as “high polyreactivity”. “QVQLVESGGGLVQAGGSLRLSCAASGRTIRWYAMGWYRPARGKERELVAVISRGGGSTTYADSVKGRFTISRDNAKNTVYLQMNSLKPEDTAVYYCAAYWGRTGYYGYDYYYWGQGTQVTVSS”: the “polyreactivity (PSR sort gate)” value is on record as “high polyreactivity”. Regarding “QVQLVESGGGLVQAGGSLRLSCAASGRTIRYNAMGWYRQAPGKERELVAAITGSGGSTYYADSVKGRFTISRDNAKNTVYLQMNSLKPEDTAVYYCNAVGIWFPIRLIVPYDYWGQGTQVTVSS”, the “polyreactivity (PSR sort gate)” value is “low polyreactivity”. The entry for “QVQLVESGGGLVQAGGSLRLSCAASGRTIRYYTMGWYRQAPGKERELVAAISRSGGNTYYADSVKGRFTISRDNAKITVYLQMNSLKPEETAVYYCNKEYRHYVGRHDYWGQGTQVTVSS” is “high polyreactivity”; for “QVQLVESGGGLVQAGGSLRLSCAASGRTIRYYTMGWYRQAPGKETELVATITGTGSTNYADSVKGRFTISRDNAKNTVYFQMNSLKPEDTEVYYCNARWDFVGTWRIYNYWGQGTQVTVSS” it is “high polyreactivity”; for “QVQLVESGGGLVQAGGSLRLSCAASGRTISKNAMGWYRQAPGKERELVAAISGSGGSTYYADSVKGRFTISRDNAKNTVYLQMNSLKPEDTAVYYCADRYTVSRSGYWGQGTQVTVSS” it is “high polyreactivity”. Regarding “QVQLVESGGGLVQAGGSLRLSCAASGRTISRNAMGWYRQAPGTERELVASISRSGGSTYYADSVKGRFTISRDNAKNTVYLQMNSLKPEETAVYYCAASYWHRRYDYWGQGTQVTVSS”, the “polyreactivity (PSR sort gate)” value is reported as “high polyreactivity”. “QVQLVESGGGLVQAGGSLRLSCAASGRTISSYAMGWSRQAPGKERELVAAISRSGGNTYYPDSVKGRFTISRDHAKNTVYLQMNSLKPEDTAVYYCNARGRTGFQADKFGYWGQGTQVTVSS”: the “polyreactivity (PSR sort gate)” value was “high polyreactivity”.

Turning to “QVQLVESGGGLVQAGGSLRLSCAASGRTIWRYGMGWYRQAPGKERELVAAITDSGDSTYYADSVKGRFTISRDNAKNTVYLQMNSLKPEDTAVYYCAASDVVFALNGYYPGEDDYWGQGTQVTVSS”, the “polyreactivity (PSR sort gate)” value was “low polyreactivity”. For “QVQLVESGGGLVQAGGSLRLSCAASGRTIWYYAMGWYRQAPGKERELVAAITYRGGSTYYADSVKGRFTISRDNVKNTVYLQMNSLKPEDTAVYFCAKENYYGGGFDYWGQGTQVTVSS”, the “polyreactivity (PSR sort gate)” value was “high polyreactivity”. Take “QVQLVESGGGLVQAGGSLRLSCAASGRTIYGYAMGWYRQAPGKERELVARIRSGGSTNYADSVKGRFTISRDNAKNTVYLQMNSLKPEDTAVYYCAARPGAAGYKYYYWGQGTQVTVSS”: the “polyreactivity (PSR sort gate)” value was “high polyreactivity”. Take “QVQLVESGGGLVQAGGSLRLSCAASGRTIYVYAMGWYRQAPGKERELVADINWSGGSTYYADSVKGRFTISRDNAKNTVYLQMNSLKPEDTAVYYCAADDWVRRRSHSGPEGYVYWGQGTQVTVSS”: the “polyreactivity (PSR sort gate)” value is “low polyreactivity”. On to “QVQLVESGGGLVQAGGSLRLSCAASGRTLAKNAMGWYRQAPGKERELVAAISRRGGSTYYADSVKGRFTISRDNAKNTVYLQMNSLKPEDTAVYYCARASRQGYYQLSYDEFDYWGQGTQVTVSS”, for which the “polyreactivity (PSR sort gate)” value is reported as “high polyreactivity”.

On to “QVQLVESGGGLVQAGGSLRLSCAASGRTLAPYAMGWYRQAPGKERELVAISTSGGSTYYADSVKGRFTISRDNGKNTVYLQMNSRKPEDNAVYYCAADGNSTGVYWWFYGFDYWGQGTQVTVSS”, for which the “polyreactivity (PSR sort gate)” value was “low polyreactivity”. For “QVQLVESGGGLVQAGGSLRLSCAASGRTLDSNAMGWYRQAPGKERDLVATISKRGGNTYYADSVKGRFTISRDNAKNTVYLQMNSLKPEDTAVYYCAKDVPPEYPTSSYDYWGQGTQVTVSS”, the “polyreactivity (PSR sort gate)” value is recorded as “low polyreactivity”. On to “QVQLVESGGGLVQAGGSLRLSCAASGRTLDSNAMGWYRQAPGKERELVAAISSAGSTNYADSVKGRFTISRDNAKNTVYLQMNSLKPEDTAVYYCAADLIGSHDYWGQGTQVTVSS”, for which the “polyreactivity (PSR sort gate)” value is given as “low polyreactivity”.

As for “QVQLVESGGGLVQAGGSLRLSCAASGRTLELYVMGWYRQAPGKERELVAAIRWGTGSTYYADSVKGRFTISRDNAKNTVYLQMNSLKPEDTAVYYCAAVLRQYYRAYDYWGQGTQVTVSS”, the “polyreactivity (PSR sort gate)” value was “high polyreactivity”. Consider “QVQLVESGGGLVQAGGSLRLSCAASGRTLERYSMGWYRQAPGKEREFVAAIRWSGGSTYYADSVKGRFTISRDNAKNTVYLQMNSLKPEDTAVYYCNADWQSYYWAGDGYDYWGQGTQVTVSS”, for which the “polyreactivity (PSR sort gate)” value is given as “low polyreactivity”. As for “QVQLVESGGGLVQAGGSLRLSCAASGRTLFGYAMGWYRQAPGKERELVAAITYGATSTYAHSVKGRFTISRDNAKNTVYLQMNSLKPEDTAVYYCNAYTPTDGFDYWGQGTQVTVSS”, the “polyreactivity (PSR sort gate)” value is recorded as “low polyreactivity”. In the case of “QVQLVESGGGLVQAGGSLRLSCAASGRTLFSNAMGWYRQAPGKERELVASITSGDSTYYADSVKGRFTISRDNAKNTVYLQMNSLKPEDTSVYYCAADPSIVDGEYGYWGQGTQVTVSS”, the “polyreactivity (PSR sort gate)” value is “low polyreactivity”.

Regarding “QVQLVESGGGLVQAGGSLRLSCAASGRTLFYYTMGWYRQAPGKERELVAAISSGDSTNYADSVKGRFTISRDNAKNTVYLQMNRLKPEDTAVYYCATQYLLDYKKTYRTYYSPYDYWGQGTQVTVSS”, the “polyreactivity (PSR sort gate)” value is “low polyreactivity”. Consider “QVQLVESGGGLVQAGGSLRLSCAASGRTLGANAMGWYRQAPGKEREFVAAISYSDTRTYADSVKGRFTISRDNAKNTVYFQMNSLKPEDTAVYYCAADYYTWYGILYDYWGQGTQVTVSS”, for which the “polyreactivity (PSR sort gate)” value is “low polyreactivity”.

On to “QVQLVESGGGLVQAGGSLRLSCAASGRTLGPNPMGWYRPAPGKERELVAAITYNAGSTYYADSVKGRFTISRDNAKNTVYLQMNSLKPEDTAVYYCAARSTQKWTKYYYWGQGTQVTVSS”, for which the “polyreactivity (PSR sort gate)” value is “high polyreactivity”.

Consider “QVQLVESGGGLVQAGGSLRLSCAASGRTLGQNAMGWYRQAPGKERELVASIRSGGITDYADSVKGRFTISRDNAKNTVYLQMNCLKPEDTAVYYCAADTYGYQGSAGGHWGQGTQVTVSS”, for which the “polyreactivity (PSR sort gate)” value is given as “low polyreactivity”. Regarding “QVQLVESGGGLVQAGGSLRLSCAASGRTLGQYEMGWYRQAPGTERELVAAITSSDGITYYADSVKGRFTISRDNAKNTVYLQMNSLKPEDTAVYYCASDYPYYWYWTYLYDYCGQGTQVTVSS”, the “polyreactivity (PSR sort gate)” value is listed as “low polyreactivity”. Consider “QVQLVESGGGLVQAGGSLRLSCAASGRTLGVYAMGWYRPAPGKERELVATITAGGSITSYADSVKGRFTISRDNAKNTVYLQMNSLKPEDTAVYYCAADVPGNYRKYRYGRASSHDYWGQGTQVTVSS”, for which the “polyreactivity (PSR sort gate)” value is “low polyreactivity”.

Turning to “QVQLVESGGGLVQAGGSLRLSCAASGRTLGYKAMVWYRQAPGKERELVAAISWSGGATYYADSVKGRFTISRDNAKNTVYLQMNSLKPEDTAVYYCAALNNRYPLYNYWGQGTQVTVSS”, the “polyreactivity (PSR sort gate)” value is listed as “low polyreactivity”.

Regarding “QVQLVESGGGLVQAGGSLRLSCAASGRTLHANTMGMYRQAPGKERELVAAITRGGGNTYYADSVKGRFTISRDNAKNTVYLQMNSLKPEDTAVYYCNADVSGYLWYEYDYWGQGTQVTVSS”, the “polyreactivity (PSR sort gate)” value is on record as “low polyreactivity”.

For “QVQLVESGGGLVQAGGSLRLSCAASGRTLHSYAMGWYRQAPGKERELVAAISGGASTYADSVKGRFTISRDNAMITVYFQMNSLKPEDTAVYYCAADDDPVPTYEYDVWGQGTQVTVSS”, the “polyreactivity (PSR sort gate)” value is on record as “low polyreactivity”.

For the sequence “QVQLVESGGGLVQAGGSLRLSCAASGRTLHYYAMGWYRQAPGKERELVARINWSGGSTYYADSVKGRFTISRDNAKNTVYLQMNSLKPEDTAVYYCARTSYYWSSFDYWGQGTQVTVSS”, the “polyreactivity (PSR sort gate)” value is listed as “high polyreactivity”.

With “QVQLVESGGGLVQAGGSLRLSCAASGRTLIGNAMGWYRQAPGKEREFVAAITRSGGDTYYADSVKGRFTISRDNAKNTVYLQMNSLKPEDTAVYYCAADGQLHMDYWGQGTQVTVSS”, the “polyreactivity (PSR sort gate)” value is on record as “high polyreactivity”. For “QVQLVESGGGLVQAGGSLRLSCAASGRTLKLNAMGWYRQAPGKERELVAAISWRGGSTYYADSVKGRFTISRDNAKNTVYLQMNSLKPEDTAVYYCAAEATAGFWSYGTYDYWGQGTQVTVSS”, the “polyreactivity (PSR sort gate)” value is given as “high polyreactivity”.
